Measurements reported in PMC9352680, “A comprehensive thermodynamic model for RNA binding by the Saccharomyces cerevisiae Pumilio protein PUF4”.
Positions count from the first letter of the chain named. Names may count otherwise.

T1: PUF4 RNA-binding domain (Saccharomyces cerevisiae, UniProt P25339 537-888)
T1 sequence: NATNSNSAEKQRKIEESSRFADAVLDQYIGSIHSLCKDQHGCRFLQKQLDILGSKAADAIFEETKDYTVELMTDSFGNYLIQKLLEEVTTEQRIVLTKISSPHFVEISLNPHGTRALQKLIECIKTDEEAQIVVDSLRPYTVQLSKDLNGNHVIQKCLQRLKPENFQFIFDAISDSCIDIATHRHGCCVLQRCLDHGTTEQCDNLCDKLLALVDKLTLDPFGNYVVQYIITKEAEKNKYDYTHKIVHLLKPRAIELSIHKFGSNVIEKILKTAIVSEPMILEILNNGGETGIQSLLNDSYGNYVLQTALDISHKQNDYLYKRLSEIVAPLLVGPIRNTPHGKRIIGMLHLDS

B1: Ie_S2_P4E.1_K4.1_C4.1_H4.1_A4.1_[+5CTCT]_F4.1_T4.1 (ssRNA)
RNA: UUUGAUUAAUAUGAUAUCGUUCUUUCUUGUAUCUCUAUUAUUCUUUCUCGAUAUCAUAUUAAUCUUU
B2: Ie_S2_P4E.1_K4.1_C4.1_H4.1_A4.1_[+5TTCC]_F4.1_T4.1 (ssRNA)
RNA: B1 RNA with C33U, U36C
B3: Ie_S2_P5E.1_K5.1_C5.1_H5.1_A5.1_[+6CTC]_F5.1_T5.1 (ssRNA)
RNA: B1 RNA with C33U, U34C, C35U, U36C
B4: Ie_S2_P5E.1_K5.1_C5.1_H5.1_A5.1_[+5TCC]_F5.1_T5.1 (ssRNA)
RNA: B1 RNA with C33U, U34C
B5: Ie_S2_P4E.1_K4.1_C4.1_H4.1_[+4CCCT]_A4.1_F4.1_T4.1 (ssRNA)
RNA: B1 RNA with U32C, U34C, C35U
B6: Ie_S2_P4E.1_K4.1_C4.1_H4.1_A4.1_[+5CT]_F4.1_T4.1 (ssRNA)
RNA: UUUGAUUAAUAUGAUAUCGUUCUUUCUUGUAUCUAUUAUUCUUUCUCGAUAUCAUAUUAAUCUUU
B7: Ie_S2_P5E.1_K5.1_C5.1_H5.1_[+4T]_A5.1_F5.1_T5.1 (ssRNA)
RNA: B6 RNA with C33U
B8: Ie_S2_P5E.1_K5.1_C5.1_H5.1_A5.1_[+6C]_F5.1_T5.1 (ssRNA)
RNA: B6 RNA with C33U, U34C
B9: Ie_S2_P4E.1_K4.1_C4.1_H4.1_A4.1_[+6TC]_F4.1_T4.1 (ssRNA)
RNA: B6 RNA with C33A, A35C
B10: Ie_S2_P4E.1_K4.1_C4.1_H4.1_A4.1_[+6CT]_F4.1_T4.1 (ssRNA)
RNA: B6 RNA with C33A, U34C, A35U
B11: Ie_S2_P4E.1_K4.1_C4.1_H4.1_A4.1_[+7TT]_F4.1_T4.1 (ssRNA)
RNA: B6 RNA with C33A, A35U
B12: Ie_S2_P4E.1_K4.1_C4.1_H4.1_A4.1_[+5CC]_F4.1_T4.1 (ssRNA)
RNA: B6 RNA with U34C
B13: Ie_S2_P4E.1_K4.1_C4.1_H4.1_[+3TTCCT]_A4.1_F4.1_T4.1 (ssRNA)
RNA: UUUGAUUAAUAUGAUAUCGUUCUUUCUUGUUUCCUAUAUUAUUCUUUCUCGAUAUCAUAUUAAUCUUU
B14: Ie_S2_P4E.1_K4.1_C4.1_H4.1_[+4TCTCT]_A4.1_F4.1_T4.1 (ssRNA)
RNA: B13 RNA with U31A, C34U, U35C, A36U
B15: Ie_S2_P4E.1_K4.1_C4.1_H4.1_[+3CCCTT]_A4.1_F4.1_T4.1 (ssRNA)
RNA: B13 RNA with U31C, U32C, C34U
B16: Ie_S2_P5E.1_K5.1_C5.1_H5.1_A5.1_[+5TTCC]_F5.1_T5.1 (ssRNA)
RNA: B13 RNA with U31A, C33U, C34U, U35C, A36C
B17: Ie_S2_P4E.1_K4.1_C4.1_H4.1_A4.1_[+5TCTCT]_F4.1_T4.1 (ssRNA)
RNA: B13 RNA with U31A, C33U, A36C
B18: Ie_S2_P4E.1_K4.1_C4.1_H4.1_[+4CCTCT]_A4.1_F4.1_T4.1 (ssRNA)
RNA: B13 RNA with U31A, U32C, C34U, U35C, A36U
B19: Ie_S2_P4E.1_K4.1_C4.1_H4.1_[+4CCCTT]_A4.1_F4.1_T4.1 (ssRNA)
RNA: B13 RNA with U31A, U32C, A36U
B20: Ie_S2_P4E.1_K4.1_C4.1_H4.1_[+4CTCTC]_A4.1_F4.1_T4.1 (ssRNA)
RNA: B13 RNA with U31A, U32C, C33U, A36C
B21: Ie_S2_P5E.1_K5.1_C5.1_H5.1_A5.1_[+5CCCT]_F5.1_T5.1 (ssRNA)
RNA: B13 RNA with U31A, U35C, A36U
B22: Ie_S2_P4E.1_K4.1_C4.1_H4.1_[+4TTCCT]_A4.1_F4.1_T4.1 (ssRNA)
RNA: B13 RNA with U31A, C33U, U35C, A36U
B23: Ie_S2_P5E.1_K5.1_C5.1_H5.1_A5.1_[+5CCTC]_F5.1_T5.1 (ssRNA)
RNA: B13 RNA with U31A, A36C
B24: Ie_S2_P4E.1_K4.1_C4.1_H4.1_[+4CCT]_A4.1_F4.1_T4.1 (ssRNA)
RNA: UUUGAUUAAUAUGAUAUCGUUCUUUCUUGUACCUUAUUAUUCUUUCUCGAUAUCAUAUUAAUCUUU
B25: Ie_S2_P4E.1_K4.1_C4.1_H4.1_A4.1_F4.1_[+8CTT]_T4.1 (ssRNA)
RNA: B24 RNA with C32U, C33A, A36C
B26: Ie_S2_P4E.1_K4.1_C4.1_H4.1_A4.1_[+5TCC]_F4.1_T4.1 (ssRNA)
RNA: B24 RNA with C32U, C33U, U34C, U35C
B27: Ie_S2_P5E.1_K5.1_C5.1_H5.1_[+4TT]_A5.1_F5.1_T5.1 (ssRNA)
RNA: B24 RNA with C32U, C33U
B28: Ie_S2_P4E.1_K4.1_C4.1_H4.1_[+4TCC]_A4.1_F4.1_T4.1 (ssRNA)
RNA: B24 RNA with C32U, U34C
B29: Ie_S2_P4E.1_K4.1_C4.1_H4.1_A4.1_[+5TTC]_F4.1_T4.1 (ssRNA)
RNA: B24 RNA with C32U, C33U, U35C
B30: Ie_S2_P5E.1_K5.1_C5.1_H5.1_[+4TC]_A5.1_F5.1_T5.1 (ssRNA)
RNA: B24 RNA with C32U
B31: Ie_S2_P5E.1_K5.1_C5.1_H5.1_[+4CT]_A5.1_F5.1_T5.1 (ssRNA)
RNA: B24 RNA with C33U
B32: Ie_S2_P4E.1_K4.1_C4.1_H4.1_A4.1_[+7CCT]_F4.1_T4.1 (ssRNA)
RNA: B24 RNA with C32U, C33A, U35C, A36C
B33: Ie_S2_P4E.1_K4.1_C4.1_H4.1_A4.1_[+6TTT]_F4.1_T4.1 (ssRNA)
RNA: B24 RNA with C32U, C33A, A36U
B34: Ie_S2_P4E.1_K4.1_C4.1_H4.1_A4.1_[+6CCT]_F4.1_T4.1 (ssRNA)
RNA: B24 RNA with C32U, C33A, U34C, U35C, A36U
B35: Ie_S2_P4E.1_K4.1_C4.1_H4.1_A4.1_[+5CTC]_F4.1_T4.1 (ssRNA)
RNA: B24 RNA with C32U, U35C
B36: Ie_S2_P5E.1_K5.1_C5.1_H5.1_A5.1_[+6CT]_F5.1_T5.1 (ssRNA)
RNA: B24 RNA with C32U, C33U, U34C
B37: Ic_S2_P3E.1_K3.1_C3.1_H3.1_A3.1_[A6C]_F3.1_[A8C]_T3.1 (ssRNA)
RNA: UUUGAUUAAUAUGAUAUCGUUCUUUCUUGUAUCUCUUCUUUCUCGAUAUCAUAUUAAUCUUU
B38: Ib_S2_P3E.1_K3.1_C3.1_H3.1_A3.1_[A6G]_F3.1_[A8T]_T3.1 (ssRNA)
RNA: B37 RNA with C33G, C35U
B39: Ib_S2_P3E.1_K3.1_C3.1_H3.1_A3.1_[A6T]_F3.1_[A8C]_T3.1 (ssRNA)
RNA: B37 RNA with C33U
B40: If_S2_P5E.1_K5.1_C5.1_H5.1_A5.1_F5.1_T5.1 (ssRNA)
RNA: UUUGAUUAAUAUGAUAUCGUUCUUUCUUGUAUUAUUAUUCUUUCUCGAUAUCAUAUUAAUCUUU

The binders below were run against T1, PUF4 RNA-binding domain (assay: Mg; RNA-MaP; 20 mM Na-HEPES pH 7.4, 30 mM KOAc, 0.75 mM MgCl2, 0.1% Tween-20, 5% glycerol, 0.1 mg/mL BSA, 2 mM DTT; 25 C; 0.0125-409.6 nM protein). Details: tags: N-His6-TEV cleaved; C-SNAP kept, Cy3B-labelled; label: tethered on chip by stalled RNA polymerase.

Row | Binder | Kd
1 | B1 | 4.51 nM
2 | B2 | 47.7 nM
3 | B3 | 18.7 nM
4 | B4 | 4.58 nM
5 | B5 | 1.96 nM
6 | B6 | 5.74 nM
7 | B7 | 11.6 nM
8 | B8 | 25.6 nM
9 | B9 | 4.55 nM
10 | B10 | 3.75 nM
11 | B11 | 2.3 nM
12 | B12 | 20.2 nM
13 | B13 | 17.5 nM
14 | B14 | 7.16 nM
15 | B15 | 35.8 nM
16 | B16 | 7.16 nM
17 | B17 | 7.74 nM
18 | B18 | 5.57 nM
19 | B19 | 5.28 nM
20 | B20 | 6.5 nM

Row | Binder | Kd
21 | B21 | 11.9 nM
22 | B22 | 8 nM
23 | B23 | 10.2 nM
24 | B24 | 1.13 nM
25 | B25 | 4.6 nM
26 | B26 | 46.4 nM
27 | B27 | 1.57 nM
28 | B28 | 2.35 nM
29 | B29 | 29.9 nM
30 | B30 | 1.55 nM
31 | B31 | 0.922 nM
32 | B32 | 10.6 nM
33 | B33 | 3.88 nM
34 | B34 | 12.7 nM
35 | B35 | 26.1 nM
36 | B36 | 1.41 nM
37 | B37 | 15.4 nM
38 | B38 | 22.5 nM
39 | B39 | 29.3 nM
40 | B40 | 1.92 nM
